These results are taken from US20200002434A1 (BIOSION, published 2020).

Where a chain is given by its changes, count along the chain named.

Test [1] concerns the target recombinant human ErbB2 extracellular domain (ErbB2-ECD) (human) (UniProt P04626). The test can be described thus: competitive ELISA vs biotin-Trastuzumab on ErbB2-ECD; control. For orientation: An ELISA detects its analyte on a solid surface through an enzyme-linked reagent.
For test [2], the target named is T1, recombinant human ErbB2 extracellular domain (ErbB2-ECD) (human, UniProt P04626 23-652).
T1 construct: extracellular domain; Coated on plates or used biotin-labeled in solution (capture ELISA); also called Human ErbB2-ECD; rhErbB2
The test can be described thus: capture ELISA, recombinant ErbB2-ECD. As to the method:
(§1) The corresponding purified IgG of five antibodies of this invention were also evaluated for their binding activity to recombinant human ErbB2 by capture ELISA. The procedure is briefly described as following: The 96-well plates were coated with 0.5 μg/ml anti-ErbB2 antibody overnight, blocked by 1% BSA in PBST at 37° C. for one hour. Add serial diluted sample of biotin-human ErbB2-ECD started with 2 μg/ml with 1:5 serial dilution. Wash the plate 3 times with PBST and add 100 ul of HRP-streptavidin (1:5000) to each well. Incubate for another 40 min at 37° C. Wash the plate 3 times with PBST and add 100 ul/well of TMB to develop at RT for 15 min followed by quenching with 50 ul 1N HCl. Read the plates at 450 nm for OD's value. Calculate the binding EC50 by using Prism software and the results are in Table 8 below
The variable domains of the heavy and light chain of the anti-ErbB2 monoclonal antibodies (Table 12, above) were cloned in-frame to human IgG1 heavy-chain and kappa light-chain constant regions, respectively.

Test [3] deals with T2, recombinant mouse ErbB2-ECD (mouse, UniProt P70424 23-653).
T2 construct: extracellular domain
T2 sequence (P70424 23-653): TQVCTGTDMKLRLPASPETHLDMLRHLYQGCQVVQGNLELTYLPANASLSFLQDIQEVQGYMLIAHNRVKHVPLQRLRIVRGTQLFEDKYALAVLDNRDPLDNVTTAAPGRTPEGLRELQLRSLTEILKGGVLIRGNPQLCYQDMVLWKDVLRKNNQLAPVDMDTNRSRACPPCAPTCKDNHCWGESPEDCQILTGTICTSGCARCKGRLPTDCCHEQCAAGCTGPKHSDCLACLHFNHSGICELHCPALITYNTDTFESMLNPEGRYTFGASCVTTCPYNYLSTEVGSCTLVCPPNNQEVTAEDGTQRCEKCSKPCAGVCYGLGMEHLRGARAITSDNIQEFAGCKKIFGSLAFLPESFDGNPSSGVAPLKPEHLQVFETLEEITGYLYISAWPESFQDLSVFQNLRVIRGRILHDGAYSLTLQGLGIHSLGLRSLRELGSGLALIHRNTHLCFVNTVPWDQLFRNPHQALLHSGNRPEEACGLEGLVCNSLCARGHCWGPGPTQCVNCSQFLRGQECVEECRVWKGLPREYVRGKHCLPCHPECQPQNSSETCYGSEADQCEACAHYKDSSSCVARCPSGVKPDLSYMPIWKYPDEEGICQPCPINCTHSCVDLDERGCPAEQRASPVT
As to the kind of experiment: indirect ELISA, coated ErbB2-ECD. As to the method: (§2) Using indirect ELISA described in Example 1, the binding activity of antibodies of this invention to recombinant ErbB2-ECD derived from different species such as mouse, rat, Macaca mulatta, Macaca fascicularis and human, was examined. Briefly. Coat 96-well ELISA plates with 1 ug/ml recombinant ErbB2-ECD of different species with 100 ul/well and incubate at 4° C. for overnight. Remove the coating solution by discarding and tapping gently on a filter paper. Add 200 ul/well blocking buffer, incubate at 37° C. for 1-2 hours. Add purified antibody of this invention and incubate at 37° C. for one hour. Wash the plate 3 times with PBST, add goat anti-mouse IgG-HRP 100 ul/well, incubate at 37° C. for one hour. Wash the plate 3 times with PBST, add 100 ul/well TMB after 15 min, add 50 ul/well 1N HCl. Read the plate with Microplate Reader at 450 nm wavelength.
(§3) Following the same method described in Example 5, the binding activity of the chimeric antibodies of this invention was examined for binding recombinant ErbB2-ECD derived from different species such as mouse, rat Macaca mulatta, Macaca fasciculari and human.

For test [4], the target named is T3, recombinant rat ErbB2-ECD (rat, UniProt P06494 23-654).
T3 construct: extracellular domain
T3 sequence (P06494 23-654): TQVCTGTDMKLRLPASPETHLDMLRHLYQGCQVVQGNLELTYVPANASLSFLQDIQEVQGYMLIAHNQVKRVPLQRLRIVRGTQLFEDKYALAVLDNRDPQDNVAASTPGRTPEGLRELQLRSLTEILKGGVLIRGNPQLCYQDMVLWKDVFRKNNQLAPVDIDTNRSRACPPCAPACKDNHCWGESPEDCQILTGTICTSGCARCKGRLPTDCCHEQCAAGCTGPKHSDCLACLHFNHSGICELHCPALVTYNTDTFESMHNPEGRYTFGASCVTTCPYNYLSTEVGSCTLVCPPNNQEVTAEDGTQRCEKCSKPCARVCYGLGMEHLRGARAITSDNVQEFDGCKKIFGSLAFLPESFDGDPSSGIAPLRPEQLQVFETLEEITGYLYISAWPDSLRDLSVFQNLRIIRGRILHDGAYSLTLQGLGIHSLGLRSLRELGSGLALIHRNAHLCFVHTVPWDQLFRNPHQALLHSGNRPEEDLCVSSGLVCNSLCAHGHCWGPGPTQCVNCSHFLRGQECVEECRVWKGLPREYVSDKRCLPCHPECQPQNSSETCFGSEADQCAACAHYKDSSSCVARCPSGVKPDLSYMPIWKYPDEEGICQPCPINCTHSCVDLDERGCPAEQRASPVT
The test can be described thus: indirect ELISA, coated ErbB2-ECD. As to the method: as §2, §3

The target in test [5] is T4, recombinant Macaca mulatta ErbB2-ECD (Macaca mulatta, UniProt I0FM22 23-652).
T4 construct: extracellular domain
The test can be described thus: indirect ELISA, coated ErbB2-ECD. As to the method:
as §2, §3

The target of test [6] is T5, human ErbB2 on ErbB2-positive cells (human, UniProt P04626 23-1255). The test can be described thus: cell-based or functional assay.
Test [7] deals with T5, human ErbB2 on ErbB2-positive cells. The test can be described thus: cell-based or functional assay. This is another data set of the same source.
Test [8] shares this target. As to the kind of experiment: cell-based or functional assay. The source holds these as a separate data set.
The target in test [9] is T2, recombinant mouse ErbB2-ECD. The test can be described thus: indirect ELISA, coated ErbB2-ECD 1 ug/ml. As to the method: as §2
Test [10] has as its target T3, recombinant rat ErbB2-ECD. As to the kind of experiment: indirect ELISA, coated ErbB2-ECD 1 ug/ml. As to the method:
as §2

Test [11] addresses T4, recombinant Macaca mulatta ErbB2-ECD. As to the kind of experiment: indirect ELISA, coated ErbB2-ECD 1 ug/ml. As to the method:
as §2

The target in test [12] is T1, recombinant human ErbB2 extracellular …. The test can be described thus: capture ELISA, coated antibody, biotin-human ErbB2-ECD titrated. As to the method:
as §1

Test [13] has the same target. The test can be described thus: capture ELISA, recombinant ErbB2-ECD. The source holds these as a separate data set.
Test [14] has the same target. As to the kind of experiment: capture ELISA, recombinant ErbB2-ECD. This is another data set of the same source.

With normal human IgG (antibody), in test [1], the OD450 was 2.91 OD.

For normal mouse IgG (antibody), the OD450 in test [1] turned out to be 2.8 OD.

B1: 4G6 chimera (antibody, V domains shown)
VH: QVQLQQSGAELARPGASVKMSCKASGYTFTSYTMHWVKQRPGQGLEWIGYINPSSAYTNYNQKFKDKATLTADKSSSTANMQLNSLTSEDSAVYYCARASAYSLDYWGQGTALTVSS
VL: DIQMTQSPSSLSASLGGKVTITCKASQDINKYIAWYQHKPGKGPRLLIHSTSTLYPGIPSRFSGSGSGRDYSFRITNLEPEDIATYYCLQYDNLLWTFGGGTKVGIR
notes: also called 4G6 chimeric antibody
Usually EC50 stands for the concentration at which the effect is half-maximal. As for B1, the concentration for a half-maximal effect (EC50) in [2] was 20 pM. The results for the binding result in test [3], in test [4] and in [5] were “no binding”, “no binding” and “binds”, respectively. Besides, in test [6], the “BT474 cell proliferation inhibition IC50 (hIgG + 4G6c)” value was 36300 pM.

B2: 4G6 mouse anti-ErbB2 monoclonal antibody (antibody, mouse IgG1, V domains shown)
VH: B1 VH
VL: B1 VL
notes: also called 4G6C9B8; IgG 4G6
Turning to B2, in test [7], the “BT474 cell proliferation inhibition IC50 (hIgG + 4G6)” value was around 1240 pM. The “Internalization rate in SKBR3 cells, FITC signal, 2-hour” value (“Internalization rate in SKBR3 cells” below) in [8] is 18.5. In addition, the binding result is listed as “no binding” in test [9], “no binding” in [10] and “binds” in test [11]. In test [12], the EC50 was determined as 21 pM.

B3: 5F12 mouse anti-ErbB2 monoclonal antibody (antibody, mouse IgG1, V domains shown)
VH: B1 VH with V37I, A56S, K63N, A101S
VL: B1 VL with A13T, R69K, V104L
notes: also called 5F12E5A8; IgG 5F12
With B3, the “BT474 cell proliferation inhibition IC50 (hIgG + 5F12)” value in [7] was found to be 700 pM. For the same molecule, the “Internalization rate in SKBR3 cells” value in test [8] was 22.6. Further, the figures for the binding result in [9], in test [10] and in test [11] were “no binding”, “no binding” and “binds”, respectively. In addition, the EC50 in [12] came out at 156 pM.

B4: 5F12 chimera (antibody, V domains shown)
VH: B1 VH with V37I, A56S, K63N, A101S
VL: B1 VL with A13T, R69K, V104L
notes: also called 5F12 chimeric; 5F12 chimeric antibody
Regarding B4, the EC50 in [13] came to 43 pM; in test [2] it was 24 pM. For the same molecule, the binding result is listed as “no binding” in [3], “no binding” in test [4] and “binds” in [5].

B5: 5G9 mouse anti-ErbB2 monoclonal antibody (antibody, mouse IgG1, V domains shown)
VH: QVQLQQSGAELARPGASVKMSCKTSGYTFSSYTIHWVKQRPGQGLDWIGYINPSSDYTAYNQKFRDKATLTADQSSNTAYMQLSSLASADSAVYYCARASAFSLDFWGQGTTLTVSS
VL: DIQMTQSPSSLSASLGGKVTISCKASHDIDRYIAWYQHKPGKGPRLLIHYTSTLQPGIPSRFSGSGSGRDYSFSISNLEPEDVATYYCLNYDNLLWTFGGGTKLEIT
notes: also called 5G91B42A3; IgG 5G9
In the case of B5, in [7], the “BT474 cell proliferation inhibition IC50 (hIgG + 5G9)” value was around 1330 pM. Besides, the values for the binding result in test [9], in test [10] and in [11] were “no binding”, “no binding” and “binds”, respectively. For the same molecule, the EC50 in [12] came out at 499 pM.

B6: 4C9 chimera (antibody, V domains shown)
VH: B1 VH with E46D, A56G, N59T, N80Y, N84S, T87A, E89A, A112T
VL: B5 VL with K18R, S22T, V83I, N90K
notes: also called 4C9 chimeric antibody
For B6, the EC50 in test [2] is 114 pM. Also, the results for the binding result in test [3], in test [4] and in [5] were “no binding”, “no binding” and “binds”, respectively.

B7: 4C9 mouse anti-ErbB2 monoclonal antibody (antibody, mouse IgG1, V domains shown)
VH: B1 VH with E46D, A56G, N59T, N80Y, N84S, T87A, E89A, A112T
VL: B5 VL with K18R, S22T, V83I, N90K
notes: also called 4C9G3F5; IgG 4C9
Take B7: the “BT474 cell proliferation inhibition IC50 (hIgG + 4C9)” value in test [7] came to 471 pM. Moreover, the “Internalization rate in SKBR3 cells” value in test [8] was determined as 23.8. The binding result in test [9] was “no binding”; in test [10] it was “no binding”; in test [11], “binds”. The concentration for a half-maximal effect (EC50) in test [12] is 142 pM.

B8: 5G9 chimera (antibody, V domains shown)
VH: B5 VH
VL: B5 VL
notes: also called 5G9 chimeric; 5G9 chimeric antibody
For the molecule B8, the half-maximal effective concentration (EC50) in [2] turned out to be 49 pM; in test [14], 44 pM. Moreover, the binding result in test [3] was “no binding”; in [4] it was “no binding”; in [5] it was “binds”. For the same molecule, in [6], the “BT474 cell proliferation inhibition IC50 (hIgG + 5G9c)” value turned out to be 43400 pM.

B9: 4H2 chimera (antibody, V domains shown)
VH: B1 VH with Y27F, M34I, E46D, A56G, N59T, K63R, N80Y, N84S, E89A, A112T
VL: B5 VL with S22T, H27Q, D70N, V83I, N90K, T107K
notes: also called 4H2 chimeric antibody
Consider B9, for which the EC50 in test [2] amounted to 118 pM. Also, the values for the binding result in test [3], in [4] and in [5] were “no binding”, “no binding” and “binds”, respectively. For the same molecule, in test [6], the “BT474 cell proliferation inhibition IC50 (hIgG + 4H2c)” value turned out to be 19300 pM.

B10: 4H2 mouse anti-ErbB2 monoclonal antibody (antibody, mouse IgG1, V domains shown)
VH: B1 VH with Y27F, M34I, E46D, A56G, N59T, K63R, N80Y, N84S, E89A, A112T
VL: B5 VL with S22T, H27Q, D70N, V83I, N90K, T107K
notes: also called 4H2H2H9; IgG 4H2
With B10, the “BT474 cell proliferation inhibition IC50 (hIgG + 4H2)” value in test [7] was around 1160 pM. Further, the “Internalization rate in SKBR3 cells” value in [8] was determined as 17.7. For the same molecule, the binding result is given as “no binding” in test [9], “no binding” in test [10] and “binds” in test [11]. In [12], the half-maximal effective concentration (EC50) came to 117 pM.
